Molecular target: T1, CTCF ZNF1-11 (GST-zinc finger domain) (human, UniProt P49711 266-577)
T1 sequence: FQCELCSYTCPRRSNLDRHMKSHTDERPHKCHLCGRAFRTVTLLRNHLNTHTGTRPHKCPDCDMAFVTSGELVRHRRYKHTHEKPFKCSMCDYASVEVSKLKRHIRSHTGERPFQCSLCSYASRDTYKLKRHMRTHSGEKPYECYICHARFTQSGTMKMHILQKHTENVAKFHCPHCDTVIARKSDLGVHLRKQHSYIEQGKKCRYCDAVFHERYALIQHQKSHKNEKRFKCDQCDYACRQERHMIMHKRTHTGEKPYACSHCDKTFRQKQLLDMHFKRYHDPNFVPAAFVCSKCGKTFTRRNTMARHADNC
Experiment: EMSA; 50 mM MgCl2; 200 ng poly(dI/dC); EMSA: 25 mM HEPES pH 8.0, 50 mM KCl, 50 mM MgCl2, 1% NP40, 10% glycerol, 200 ng poly(dI/dC), 20 min at 4 C; 1 pmol protein, 0.5 pmol DNA
Conditions: protein: recombinant; tags: GST (pGEX-4T-1; N-terminal); label: 32P; blunt (only one strand printed; described as duplex oligonucleotide)

B1: insulator DNA 45-mer (dsDNA)
DNA 1: CCCCCAGGGATGTAATTACGTCCCTCCCCCGCTAGGGGGCAGCAG
DNA 2: CTGCTGCCCCCTAGCGGGGGAGGGACGTAATTACATCCCTGGGGG
binding result: binds

Source: PMC5337984, “CTCF participates in DNA damage response via poly(ADP-ribosyl)ation”
